# Target: T1, mCherry-APPL1-delta-PTB
# T1 sequence (Q9UKG1 whole entry, species assumed, looked up): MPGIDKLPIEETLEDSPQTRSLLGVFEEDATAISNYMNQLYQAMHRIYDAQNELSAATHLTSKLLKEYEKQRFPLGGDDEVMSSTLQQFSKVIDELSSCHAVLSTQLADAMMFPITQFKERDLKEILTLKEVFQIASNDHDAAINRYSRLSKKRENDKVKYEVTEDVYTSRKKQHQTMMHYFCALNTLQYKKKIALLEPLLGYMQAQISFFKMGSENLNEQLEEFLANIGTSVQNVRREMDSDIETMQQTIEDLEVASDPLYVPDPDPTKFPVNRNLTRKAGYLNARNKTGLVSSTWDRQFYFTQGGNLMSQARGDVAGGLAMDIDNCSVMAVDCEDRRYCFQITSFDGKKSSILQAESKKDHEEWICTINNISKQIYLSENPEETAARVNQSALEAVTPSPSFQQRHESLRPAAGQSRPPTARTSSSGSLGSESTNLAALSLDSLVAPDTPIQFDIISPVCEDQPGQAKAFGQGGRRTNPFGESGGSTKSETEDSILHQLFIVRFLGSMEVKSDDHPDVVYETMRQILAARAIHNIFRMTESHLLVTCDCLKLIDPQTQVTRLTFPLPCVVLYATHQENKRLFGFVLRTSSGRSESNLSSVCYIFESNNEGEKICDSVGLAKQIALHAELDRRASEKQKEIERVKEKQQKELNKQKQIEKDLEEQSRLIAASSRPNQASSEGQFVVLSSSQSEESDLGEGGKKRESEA
# Assay: FRET or BRET; FRET/FLIM in live primary hippocampal neurons at DIV 7, 37 °C; GFP-Akt1 donor, mCherry fusion acceptor; donor lifetime measured in cell body and growth cone; untreated
# Sequence of GFP-Akt1 (P31749 whole entry, the tested form may be a part): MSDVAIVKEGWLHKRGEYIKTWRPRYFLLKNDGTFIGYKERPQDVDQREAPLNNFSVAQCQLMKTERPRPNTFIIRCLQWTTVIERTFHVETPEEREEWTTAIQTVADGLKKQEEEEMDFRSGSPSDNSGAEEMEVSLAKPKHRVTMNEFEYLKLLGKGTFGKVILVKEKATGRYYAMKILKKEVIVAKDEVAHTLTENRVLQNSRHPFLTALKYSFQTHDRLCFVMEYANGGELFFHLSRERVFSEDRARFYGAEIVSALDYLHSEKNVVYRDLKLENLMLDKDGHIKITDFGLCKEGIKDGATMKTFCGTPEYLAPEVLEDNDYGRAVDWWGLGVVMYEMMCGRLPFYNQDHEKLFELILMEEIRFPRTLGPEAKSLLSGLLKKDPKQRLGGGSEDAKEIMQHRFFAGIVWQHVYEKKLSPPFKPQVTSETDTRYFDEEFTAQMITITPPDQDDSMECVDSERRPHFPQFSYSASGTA
substance,measurement,value
GFP-Akt1 (from UniProt P31749 1-480),FRET efficiency (growth cone),< 1%

# — article PMC6385319
